From the RNAGym collection of RNA variant scans (doi:10.1093/molbev/msab373) come the findings set out here.

B1: Azoarcus group I ribozyme (parent)
chain: GUGCCUUGCGCCGGGAAACCACGCAAGGGAUGGUGUCAAAUUCGGCGAAACCUAAGCGCCCGCCCGGGCGUAUGGCAACGCCGAGCCAAGCUUCGGCGCCUGCGCCGAUGAAGGUGUAGAGACUAGACGGCACCCACCUAAGGCAAACGCUAUGGUGAAGGCAUAGUCCAGGGAGUGGCGAAAGUCACACAAACCGG

In this data set the parent is B1. Kind of data set: reverse-splicing fitness (ratio to wild type); higher = more active; in vitro selection; Mg2+ level not given. The method in brief: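 An in vitro group I ribozyme library with randomized positions was T7-transcribed and gel-purified. In triplicate, 10 pmol RNA in EPPS pH 7.5 was reacted with 50 pmoles of a 30-nt RNA substrate for 1 h at 37 °C across several added MgCl2 levels (1–48 mM), then stopped with EDTA. Products were reverse transcribed from a substrate-complementary primer, PCR-amplified and sequenced (HiSeq 4000). Fitness is a variant's read proportion after selection over that before, normalised to wild type.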
Regarding GUGCCUUGCGCCGGGAAACCACGCAAGGGAUGGUGUCAAAUUCGGCGAAACCUAAGCGCCCGCCCGGGCGUAUGGCAACGCCGAGCCAAGCUUCGGCGCCUGCGCCGAUGGAGGUGUAGUGACUAGACGGCACCCACCUAAGGCGAACGAUAUGGUGAAGGCAUAGUCAAGGGAGCGGCGAAAGUCACACAAACCGG, the reverse-splicing fitness came out at 0.00368. Consider GUGCCUUGCGCCGGGAAACCACGCAAGGGAUGGUGUCAAAUUCGGCGAAACCUAAGCGCCCGCCCGGGCGUAUGGCAACGCGGAGCCAAGCUUCGGCGCCUGCGCCGAUGCAGGUGUAGCGACUAGACGGCACCCACCUAAGGCCAACGGUAUGGUGAAGGCAUAGUCCAGGGAGUGGCGAAAGUCACACAAACCGG, for which the reverse-splicing fitness is 0.0093. On to GUGCCUUGCGCCGGGAAACCACGCAAGGGAUGGUGUCAAAUUCGGCGAAACCUAAGCGCCCGCCCGGGCGUAUGGCAACGCUGAGCCAAGCUUCGGCGCCUGCGCCGAUGUAGGUGUAGCGACUAGACGGCACCCACCUAAGGCCAACGGUAUGGUGAAGGCAUAGUCUAGGGAGUGGCGAAAGUCACACAAACCGG, for which the reverse-splicing fitness stood at 0.00848. The figure for GUGCCUUGCGCCGGGAAACCACGCAAGGGAUGGUGUCAAAUUCGGCGAAACCUAAGCGCCCGCCCGGGCGUAUGGCAACGCUGAGCCAAGCUUCGGCGCCUGCGCCGAUGCAGGUGUAGGGACUAGACGGCACCCACCUAAGGCCAACGGUAUGGUGAAGGCAUAGUCGAGGGAGUGGCGAAAGUCACACAAACCGG is 0.00642; for GUGCCUUGCGCCGGGAAACCACGCAAGGGAUGGUGUCAAAUUCGGCGAAACCUAAGCGCCCGCCCGGGCGUAUGGCAACGCUGAGCCAAGCUUCGGCGCCUGCGCCGAUGCAGGUGUAGAGACUAGACGGCACCCACCUAAGGCUAACGCUAUGGUGAAGGCAUAGUCCAGGGAGUGGCGAAAGUCACACAAACCGG it is 0.246. For GUGCCUUGCGCCGGGAAACCACGCAAGGGAUGGUGUCAAAUUCGGCGAAACCUAAGCGCCCGCCCGGGCGUAUGGCAACGCAGAGCCAAGCUUCGGCGCCUGCGCCGAUGGAGGUGUAGCGACUAGACGGCACCCACCUAAGGCUAACGGUAUGGUGAAGGCAUAGUCCAGGGAGCGGCGAAAGUCACACAAACCGG, the reverse-splicing fitness worked out at 0.00993. In the case of GUGCCUUGCGCCGGGAAACCACGCAAGGGAUGGUGUCAAAUUCGGCGAAACCUAAGCGCCCGCCCGGGCGUAUGGCAACGCCGAGCCAAGCUUCGGCGCCUGCGCCGAUGCAGGUGUAGCGACUAGACGGCACCCACCUAAGGCGAACGAUAUGGUGAAGGCAUAGUCGAGGGAGGGGCGAAAGUCACACAAACCGG, the reverse-splicing fitness was 0.00696. The figure for GUGCCUUGCGCCGGGAAACCACGCAAGGGAUGGUGUCAAAUUCGGCGAAACCUAAGCGCCCGCCCGGGCGUAUGGCAACGCUGAGCCAAGCUUCGGCGCCUGCGCCGAUGUAGGUGUAGUGACUAGACGGCACCCACCUAAGGCUAACGGUAUGGUGAAGGCAUAGUCUAGGGAGCGGCGAAAGUCACACAAACCGG is 0.00272. The value for GUGCCUUGCGCCGGGAAACCACGCAAGGGAUGGUGUCAAAUUCGGCGAAACCUAAGCGCCCGCCCGGGCGUAUGGCAACGCAGAGCCAAGCUUCGGCGCCUGCGCCGAUGCAGGUGUAGAGACUAGACGGCACCCACCUAAGGCUAACGAUAUGGUGAAGGCAUAGUCGAGGGAGUGGCGAAAGUCACACAAACCGG was 0.00915; that for GUGCCUUGCGCCGGGAAACCACGCAAGGGAUGGUGUCAAAUUCGGCGAAACCUAAGCGCCCGCCCGGGCGUAUGGCAACGCCGAGCCAAGCUUCGGCGCCUGCGCCGAUGAAGGUGUAGGGACUAGACGGCACCCACCUAAGGCCAACGCUAUGGUGAAGGCAUAGUCCAGGGAGCGGCGAAAGUCACACAAACCGG was 0.227; that for GUGCCUUGCGCCGGGAAACCACGCAAGGGAUGGUGUCAAAUUCGGCGAAACCUAAGCGCCCGCCCGGGCGUAUGGCAACGCGGAGCCAAGCUUCGGCGCCUGCGCCGAUGGAGGUGUAGUGACUAGACGGCACCCACCUAAGGCCAACGCUAUGGUGAAGGCAUAGUCUAGGGAGGGGCGAAAGUCACACAAACCGG was 0.00131. As to GUGCCUUGCGCCGGGAAACCACGCAAGGGAUGGUGUCAAAUUCGGCGAAACCUAAGCGCCCGCCCGGGCGUAUGGCAACGCCGAGCCAAGCUUCGGCGCCUGCGCCGAUGAAGGUGUAGUGACUAGACGGCACCCACCUAAGGCAAACGAUAUGGUGAAGGCAUAGUCAAGGGAGAGGCGAAAGUCACACAAACCGG, the reverse-splicing fitness came to 0.00376. The figure for GUGCCUUGCGCCGGGAAACCACGCAAGGGAUGGUGUCAAAUUCGGCGAAACCUAAGCGCCCGCCCGGGCGUAUGGCAACGCCGAGCCAAGCUUCGGCGCCUGCGCCGAUGAAGGUGUAGUGACUAGACGGCACCCACCUAAGGCCAACGGUAUGGUGAAGGCAUAGUCAAGGGAGCGGCGAAAGUCACACAAACCGG is 0.00228; for GUGCCUUGCGCCGGGAAACCACGCAAGGGAUGGUGUCAAAUUCGGCGAAACCUAAGCGCCCGCCCGGGCGUAUGGCAACGCCGAGCCAAGCUUCGGCGCCUGCGCCGAUGCAGGUGUAGUGACUAGACGGCACCCACCUAAGGCGAACGUUAUGGUGAAGGCAUAGUCAAGGGAGUGGCGAAAGUCACACAAACCGG it is 0.00795.

Consider GUGCCUUGCGCCGGGAAACCACGCAAGGGAUGGUGUCAAAUUCGGCGAAACCUAAGCGCCCGCCCGGGCGUAUGGCAACGCGGAGCCAAGCUUCGGCGCCUGCGCCGAUGCAGGUGUAGCGACUAGACGGCACCCACCUAAGGCUAACGGUAUGGUGAAGGCAUAGUCGAGGGAGCGGCGAAAGUCACACAAACCGG, for which the reverse-splicing fitness was determined as 0.00759.
